{
  "source": "paper PMC7093963",
  "about": "“DDX39B interacts with the pattern recognition receptor pathway to inhibit NF-κB and sensitize to alkylating chemotherapy”",
  "binders": {"B1": {"name": "-1C kB probe (dsDNA)", "DNA 1": "TCGAGTTAGATGGGGACTTTCCAGGCAC", "DNA 2": "GTGCCTGGAAAGTCCCCATCTAACTCGA"}},
  "molecular_target": "His-DDX39B (UniProt Q13838 1-428)",
  "sequence (Q13838 whole entry)": "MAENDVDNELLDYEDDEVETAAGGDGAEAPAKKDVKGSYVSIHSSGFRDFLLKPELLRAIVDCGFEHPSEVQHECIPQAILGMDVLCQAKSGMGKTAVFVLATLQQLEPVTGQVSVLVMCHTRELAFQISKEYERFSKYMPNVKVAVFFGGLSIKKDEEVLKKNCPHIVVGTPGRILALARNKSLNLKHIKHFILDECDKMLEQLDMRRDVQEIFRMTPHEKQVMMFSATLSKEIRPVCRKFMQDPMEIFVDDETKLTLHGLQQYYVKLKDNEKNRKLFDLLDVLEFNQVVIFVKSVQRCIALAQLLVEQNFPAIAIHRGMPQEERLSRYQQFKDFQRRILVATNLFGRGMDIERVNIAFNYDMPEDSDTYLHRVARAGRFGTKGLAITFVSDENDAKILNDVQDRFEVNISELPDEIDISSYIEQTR",
  "assay": "EMSA; 0-300 ng protein; bound more than -1A; EMSA: bacterially expressed DDX39B, 32P probes, non-denaturing 5% acrylamide gel; binding buffer, salt, pH and temperature not given. Pull-down: U87 nuclear extract pre-cleared with non-specific biotin DNA, 2 h with probe",
  "settings": "protein: recombinant; tags: N-terminal His (pET-45b, 5' polyhistidine); label: 32P (T4 PNK); blunt",
  "data": [
    {"binder": "B1", "values": [
      {"measurement": "binding result", "value": "binds"}
    ]}
  ]
}
